Results as given in patent publication US20030096367A1 (WASHINGTON UNIVERSITY, published 2003).

Columns and labels:
[1] = target: T1, human Bcl-2 mutant mI-3 (alanine for the glycine in the WGR sequence of domain I) (human, UniProt P10415 1-239); assay: immunoprecipitation of human Bcl-2 from double transfected FL5.12 cells, Western blot with anti-mouse Bcl-2 antibody (FIG. 21)
T1 construct: also called mI 3-4; mI3-4
From the text: (§1) Immunoprecipitates were washed (unless indicated otherwise) once in lysis buffer followed by a wash in lysis buffer without NP-40. Immunoprecipitates were solubilized with SDS-PAGE sample buffer and electrophoresed through 12.5% SDS-polyacrylamide gels. Gels containing (³⁵ S)methionine labeled proteins were fixed with 10% glacial acetic acid and 30% methanol overnight, enhanced by impregnating with a commercial fluorography enhancing solution (Enhance by DuPont) for 60′, and […] in water for 30′. Gels were then dried and autoradiography performed at−70° C.
(§2) For immunoblots, proteins were electrotransferred overnight at 4° C. on nitrocellulose membranes. Filters were blocked for 2 hours with phosphate-buffered saline containing 3% non-fat milk. All additional immunostaining steps were performed in phosphate-buffered saline with 0.05% Tween-20 (PBS-Tween) at room temperature. Filters were incubated with primary antibody for 2 hours. Species specific biotinylated secondary antibodies (1:300) were also reacted for 2 hours. Immunoblots were reacted with horseradish-peroxidase-Streptavidin (1:1000) for 1 hour. Filters were washed in PBX-Tween 4 times for 5′ between each step and were developed with […] (BioRad) enhanced with nickel chloride (0.03%).
(§3) In FIG. 21 cells are created that bear two expression constructs. The Dα15 cell line is an FL5.12 bearing human Bcl-2 wild-type and mouse Bcl-2 wild-type vector. The DN2 bears a control Neomycin resistant expression vector and mouse Bcl-2 wild-type vector. The clone DSM4-5 contains mutant Bcl-2 of domain I and a mouse Bcl-2 wild-type whereas the DSM-4 contains another Bcl-2 mutant of human origin with mouse Bcl-2 wild-type. […] In FIG. 21B we see a primary immunoprecipitation of either wild-type human Bcl-2 or the mutated human Bcl-2 in which the 3-4 and 4-7 mutants have no associated Bax. Those immunoprecipitations are then developed by Western blot analysis with an anti-mouse Bcl-2 antibody. Both the wild-type human Bcl-2 as well as the two mutants mI 3-4 and mI 4-7 both associate with the wild-type mouse Bcl-2.

[2] = target: T2, human Bcl-2 mutant mI-4 (glutamic acid for the glycine in the WGR sequence of domain I) (human, UniProt P10415 1-239); assay: as above
T2 construct: also called mI 4-7; mI4-7
From the text: as §1, §2, §3

wild type human Bcl-2 = target: T3, wild type human Bcl-2 (human, UniProt P10415 1-239); assay: as above
T3 construct: also called hBcl-2; human Bcl-2 wild-type
From the text: as §1, §2, §3

[3] = target: T1, human Bcl-2 mutant mI-3 (alanine for …); assay: immunoprecipitation of radiolabeled FL5.12 and 2B4 stable transfectants (FIG. 18)
Procedure: (§4) Prior to metabolic labeling, cells were washed once in prewarmed, serum-free, methionine-free Dulbecco's medium. Cells were resuspended at 3-5×10⁶ cells/ml in methionine-free Dulbecco's medium supplemented with 10% dialyzed FCS and either 5% complete medium or 5% WEHI 3B supernatant. Metabolic labeling was performed with 40 μCi/ml of ³⁵S)methionine, (³⁵S)cysteine for 9-12 hours before lysis. All steps of the immunoprecipitation were carried out on ice or in the cold room. Cells were washed twice with cold phosphate-buffered saline and lysed in an NP-40 isotonic lysis buffer with freshly added protease inhibitors (142.5 mM KCl, 5 mM MgCl₂, 10 mM HEPES pH:7.2, 1 mM EGTA, 0.2% NP-40, 0.2 mM phenylmethylsulfonyl fluoride, 0.1% Aprotinin, 0.7 μg/ml Pepstatin and 1 μg/ml Leupeptin) by nutation for 30′. Nuclei and unlysed cellular debris were removed by centrifugation at […] for 10′. Lysates were precleared with 10% v/v Protein A-Sepharose (Prot.A-S) for 30′ which was removed by centrifugation at 400×g for 2′. In experiments, the lysates were also mixed with 10× excess cold cells lysates for 15′ prior to the addition of the antibody. Specific antibodies were added for 90′ and immunoprecipitates were captured with 10% v/v Prot.A-S for 60′. […]

[4] = target: T2, human Bcl-2 mutant mI-4 (glutamic acid …); assay: as above
Procedure: as §4

binding result [1] | binding result [2] | binding result (wild type human Bcl-2) | binding result [3] | binding result [4] | Binder
binds | binds | binds | – | – | murine Bcl-2 (wild type) (other, UniProt P10417 1-236, looked up, also called endogenous murine Bcl-2; mouse Bcl-2 wild-type) MAQAGRTGYDNREIVMKYIHYKLSQRGYEWDAGDADAAPLGAAPTPGIFSFQPESNPMPAVHRDMAARTSPLRPLVATAGPALSPVPPVVHLTLRRAGDDFSRRYRRDFAEMSSQLHLTPFTARGRFATVVEELFRDGVNWGRIVAFFEFGGVMCVESVNREMSPLVDNIALWMTEYLNRHLHTWIQDNGGWDAFVELYGPSMRPLFDFSWLSLKTLLSLALVGACITLGAYLGHK
– | – | – | no binding | no binding | murine Bax (endogenous p21 of FL5.12 cells, Bax alpha) (other, also called murine p21 protein; mouse p21) MDGSGEQLGSGGPTSSEQIMKTGAFLLQGFIQDRAGRMAGETPELTLEQPPQDASTKKLSECLRRIGDELDSNMELQRMIADVDRDSPREVFFRVAADMFADGNFNTGRVVALFYFASKLVLKALCTKVPELIRTIMGWTLDFLRERLLGWIQDQGGWEGLLSYFGTPTWQTVTIFVAGVLTASLTIWKKMG
